Measured values taken from paper PMC2141644 (The Journal of Cell Biology, 1997).

Target: F-actin (actin filaments) from rabbit skeletal muscle (rabbit, UniProt P68135 1-377)
Assay: co-sedimentation

B1: GST-dem (GST fused to abLIM amino acids 585-778) (domain or fragment)
chain: RSSGREEDDEELLRRRQLQEEQLMKLNSGLGQLILKEEMEKESRERSSLLASRYDSPINSASHIPSSKTASLPGYGRNGLHRPVSTDFAQYNSYGDVSGGVRDYQTLPDGHMPAMRMDRGVSMPNMLEPKIFPYEMLMVTNRGRNKILREVDRTRLERHLAPEVFREIFGMSIQEFDRLPLWRRNDMKKKAKLF
In the case of B1, the Kd is reported as about 2600 nM and the “stoichiometry N” value is reported as ~1.1 actin molecules per GST–abLIM monomer.
